Results: patent US20040102370A1 (IMPERIAL INNOVATIONS, published 2004)
Values joined by “and” are separate entries in the source; they are usually repeats but may differ in a detail not shown here. Equal values may be shown once. No end group written: not given here.

Target: FGF receptors
Experiment: cell-based or functional assay

Row | Binder | peptide concentration giving maximal effect in the neurite outgrowth assay
1 | Ac-DRVE-NH2 [Peptide B: Acetyl-DRVE-amide] | 75 µg/ml and 150 µM
2 | Ac-EGMEGM-NH2 [Peptide D: Acetyl-EGMEGM-amide] | 63 µg/ml and 100 µM
3 | Ac-DAVEPYSSTA-NH2 [Peptide F: Acetyl-DAVEPYSSTA-amide] | 100 µg/ml and 100 µM
4 | Peptide A(d): [{Ac-DRVEPYSSTA}2-K]2-K-OH (also: four copies of chain 1 on a branched core of three lysines (two Lys on α- and ε-amines of C-terminal Lys)) peptide: Ac-DRVEPYSSTA Lys-OH | ~0.4 µM
